In experiment [1] the target is FUS 6F-G variant (Phe residues of the RBD substituted to Gly) (UniProt P35637). The experiment in a line: DLS. As to conditions: 10 µM FUS (RBD, F/Y-G/S), read off a plot.
Experiment [2] addresses FUS 6Y-S variant (Tyr residues of the RBD substituted to Ser) (UniProt P35637). The experiment in a line: DLS. As to conditions: 10 µM FUS (RBD, F/Y-G/S), read off a plot.
The target in experiment [3] is FUS (10D/4E-G) variant (10 Asp and 4 Glu of the RBD substituted to Gly) (UniProt P35637). The experiment in a line: DLS. To be noted: 250 nM FUS (RBD, D/E-G), read off a plot.
The target of experiment [4] is FUS(Y-S) with 10 Tyr of the PLCD substituted to Ser (UniProt P35637). Put plainly: DLS. To be noted: 10 µM FUS (PLD, Y-S), read off a plot.
The target in experiment [5] is FUS(Y-S) with 18 Tyr of the PLCD substituted to Ser (UniProt P35637). The experiment in a line: DLS. To be noted: 10 µM FUS (PLD, Y-S), read off a plot.
Experiment [6] has as its target FUS(R-G) with 24 Arg of the RBD substituted to Gly (UniProt P35637). The experiment in a line: DLS. As to conditions: 10 µM FUS (RBD, R-G), read off a plot.
Experiment [7] deals with FUS(R-K) with 24 Arg of the RBD substituted to Lys (UniProt P35637). The experiment in a line: DLS. To be noted: read off a plot.
In experiment [8] the target is FUS(Y-S) with 27 Tyr of the PLCD substituted to Ser (UniProt P35637). The experiment in a line: DLS. As to conditions: 10 µM FUS (PLD, Y-S), read off a plot.
For experiment [9], the target named is T1, SNAP-tagged FUS (Fused in Sarcoma), P35637.
T1 chain: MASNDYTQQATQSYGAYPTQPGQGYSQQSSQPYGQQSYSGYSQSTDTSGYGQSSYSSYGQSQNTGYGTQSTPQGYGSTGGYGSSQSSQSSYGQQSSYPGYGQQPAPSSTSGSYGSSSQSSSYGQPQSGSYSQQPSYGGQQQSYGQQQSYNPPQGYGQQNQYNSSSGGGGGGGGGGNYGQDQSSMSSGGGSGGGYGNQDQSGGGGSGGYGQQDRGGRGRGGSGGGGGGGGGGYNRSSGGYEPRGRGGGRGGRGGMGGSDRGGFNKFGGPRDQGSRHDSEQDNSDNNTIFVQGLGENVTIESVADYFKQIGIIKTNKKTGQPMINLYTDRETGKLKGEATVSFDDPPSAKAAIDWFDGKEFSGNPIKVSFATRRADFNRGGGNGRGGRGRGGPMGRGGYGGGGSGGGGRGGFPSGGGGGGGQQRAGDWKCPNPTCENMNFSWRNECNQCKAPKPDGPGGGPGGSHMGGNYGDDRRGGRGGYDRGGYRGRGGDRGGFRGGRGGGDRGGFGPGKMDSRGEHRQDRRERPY
Put plainly: nanoparticle tracking analysis (NTA); sub-saturated solutions of one protein in 100 mM KCl and 100 mM KGlu, 25 °C, recorded 6 min after preparation; abundance of mesoscale clusters. As to conditions: remark: other sources report otherwise.

Turning to wild-type FUS 6F-G, the response in experiment [1] (KCl buffer) is 1.2 Mcps; in experiment [1] (KGlu buffer), 1.7 Mcps.
In the case of wild-type FUS 6Y-S, the response in experiment [2] (KCl buffer) was found to be 0.49 Mcps; in experiment [2] (KGlu buffer), 1.4 Mcps.
wild-type FUS 10D/4E-G: the response in experiment [3] (KCl buffer) is 3.2 Mcps; in [3] (KGlu buffer), 3.8 Mcps.
wild-type FUS 10Y-S: the response in experiment [4] (KCl buffer) came to 0.81 Mcps; in experiment [4] (KGlu buffer) it was 1.9 Mcps.
As to wild-type FUS 18Y-S, the response was determined as 0.79 Mcps in experiment [5] (KCl buffer) and 1.3 Mcps in experiment [5] (KGlu buffer).
wild-type FUS 24R-G: the response in experiment [6] (KCl buffer) came to 1.2 Mcps; in [6] (KGlu buffer), 1.8 Mcps.
Consider wild-type FUS 24R-K, for which the response in experiment [7] (1 µM FUS (24R-K), KCl buffer) came out at 0.13 Mcps; in [7] (1 µM FUS (24R-K), KGlu buffer), 1.9 Mcps; in [7] (2 µM FUS (24R-K), KCl buffer) it was 0.32 Mcps; in [7] (2 µM FUS (24R-K), KGlu buffer) it was 2.4 Mcps; in experiment [7] (3 µM FUS (24R-K), KCl buffer) it was 1.1 Mcps; in [7] (3 µM FUS (24R-K), KGlu buffer), 3.8 Mcps. Further, the response in experiment [7] (4 µM FUS (24R-K), KCl buffer) worked out at 1.4 Mcps; in experiment [7] (4 µM FUS (24R-K), KGlu buffer), 3.9 Mcps.
For wild-type FUS 27Y-S, the response was 0.74 Mcps in [8] (KCl buffer) and 0.86 Mcps in [8] (KGlu buffer).

B1: SNAP-tagged FUS (Fused in Sarcoma), P35637 1-526 (natural protein)
chain: MASNDYTQQATQSYGAYPTQPGQGYSQQSSQPYGQQSYSGYSQSTDTSGYGQSSYSSYGQSQNTGYGTQSTPQGYGSTGGYGSSQSSQSSYGQQSSYPGYGQQPAPSSTSGSYGSSSQSSSYGQPQSGSYSQQPSYGGQQQSYGQQQSYNPPQGYGQQNQYNSSSGGGGGGGGGGNYGQDQSSMSSGGGSGGGYGNQDQSGGGGSGGYGQQDRGGRGRGGSGGGGGGGGGGYNRSSGGYEPRGRGGGRGGRGGMGGSDRGGFNKFGGPRDQGSRHDSEQDNSDNNTIFVQGLGENVTIESVADYFKQIGIIKTNKKTGQPMINLYTDRETGKLKGEATVSFDDPPSAKAAIDWFDGKEFSGNPIKVSFATRRADFNRGGGNGRGGRGRGGPMGRGGYGGGGSGGGGRGGFPSGGGGGGGQQRAGDWKCPNPTCENMNFSWRNECNQCKAPKPDGPGGGPGGSHMGGNYGDDRRGGRGGYDRGGYRGRGGDRGGFRGGRGGGDRGGFGPGKMDSRGEHRQDRRERPY
modifications: here or on the partner: AF488 or AF647 label on the copies used in smFRET and FCS (FUS-SNAP-AF488, FUS-SNAP-AF647); unlabelled in DLS and NTA; AF488 or AF647 label on the copies used in smFRET and FCS (FUS-SNAP-AF488, FUS-SNAP-AF647); unlabelled in DLS and NTA
On to B1, for which, in [9], the relative abundance of mesoscale clusters (100 mM KCl) was in the range of 0.2 to 0.4%.

Values taken from article PMC11116469.
